Data from patent publication US20160202264A1, “A high-throughput assay to identify molecules that modulate Rb-E2F binding” (The Regents of the University of California, priority 2013, published 2016).
Where no end group is shown, it is not given here.

Biological target: T1, Rb-E2F binding (RbNP construct, E2FTMR peptide) (Homo sapiens, UniProt P06400, DEL245-267/DEL582-642)
T1 construct: lacks the internal loops in each domain (residues 53-787, Δ245-267, Δ582-642)
Assay: Fluorescence polarization titration of RbNP into E2FTMR
Settings: RbNP titrated into 10 nM E2FTMR
Text: The inventors have designed and successfully implemented a high-throughput fluorescence polarization assay to screen molecules for their modulation of Rb-E2F binding affinity. In the current exemplary format, a peptide corresponding to the E2F transactivation domain (E2F2 amino acids 409-428) was synthesized with a tetramethylrhodamine dye (TMR) at its N-terminus (E2FTMR). This peptide can then be mixed with various Rb constructs, which bind the peptide and change the polarization of the TMR fluorescence. For initial experiments, the investigators have used an Rb construct RbNP, which contains the Rb N-terminal domain and pocket domain but lacks the internal loops in each domain (residues 53-787, Δ245-267, Δ582-642).
The affinity of E2FTMR for unphosphorylated Rb is approximately 7-fold tighter than its affinity for phosphorylated RbNP. In the presence of 10 μM synthetic peptide that contains the ‘L×C×E’ sequence from the E7 oncoprotein, phosphorylated Rb binds E2F with 2-fold higher affinity. This peptide, which has a similar effect in calorimetry measurements of affinity, binds near the RbN-pocket interface, and the investigators predict it inhibits interdomain docking.

T1 sequence (P06400 with tags, fused parts or gaps DEL245-267/DEL582-642, one chain of several): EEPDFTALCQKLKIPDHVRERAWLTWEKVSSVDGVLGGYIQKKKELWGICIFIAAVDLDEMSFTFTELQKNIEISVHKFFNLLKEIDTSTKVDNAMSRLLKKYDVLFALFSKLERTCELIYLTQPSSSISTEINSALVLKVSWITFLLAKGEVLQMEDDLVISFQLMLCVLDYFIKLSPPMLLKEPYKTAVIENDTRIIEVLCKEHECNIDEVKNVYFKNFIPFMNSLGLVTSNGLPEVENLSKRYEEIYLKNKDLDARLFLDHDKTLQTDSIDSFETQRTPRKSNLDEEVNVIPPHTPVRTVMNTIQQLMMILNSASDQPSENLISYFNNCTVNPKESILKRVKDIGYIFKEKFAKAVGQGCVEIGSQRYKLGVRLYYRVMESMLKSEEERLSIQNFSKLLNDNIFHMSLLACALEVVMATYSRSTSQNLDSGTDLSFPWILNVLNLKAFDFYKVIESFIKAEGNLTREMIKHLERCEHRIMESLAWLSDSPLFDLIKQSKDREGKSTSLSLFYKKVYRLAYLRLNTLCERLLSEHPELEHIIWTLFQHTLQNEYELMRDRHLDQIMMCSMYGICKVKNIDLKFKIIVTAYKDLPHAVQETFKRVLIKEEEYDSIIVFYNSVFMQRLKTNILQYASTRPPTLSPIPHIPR

E2FTMR: peptide corresponding to the E2F transactivation domain (E2F2 amino acids 409-428) with a tetramethylrhodamine dye at its N-terminus (tetramethylrhodamine-QDDYLWGLEAGEGISDLFDS; UniProt Q14209 409-428, looked up, fragment)
Affinity of E2FTMR for unphosphorylated Rb relative to phosphorylated RbNP: approximately 7 fold
